As usually defined, the EC50 (read off the curve) is the concentration needed to bring the measured effect to its halfway point. One may read the koff as the first-order rate constant of dissociation. By Kd is commonly meant a measure of binding affinity in units of concentration. Broadly, the kon is the second-order rate constant of association.

The target in test [1] is T1, recombinant human TNF-alpha (Life Technologies) (human, UniProt P01375 77-233). The test is described as follows: depletion assay: serially diluted conjugate mixed with human TNF-alpha (100% = 6.2 ng/mL), complex adsorbed on diol Sepharose beads, TNF-alpha remaining in the supernatant measured by ELISA; 1st experiment. As for the experimental part: (§1) The complex of TNF-alpha and the conjugate were then adsorbed using 3 microliters of diol Sepharose beads. Subsequently, TNF-alpha in the supernatant was measured by ELISA, and the percentage of the remaining TNF-alpha was calculated. Experiments were done twice, independently.

The target of test [2] is T1, recombinant human TNF-alpha (Life …). The test is described as follows: Biacore SPR: conjugate fixed to the sensor chip via an amino group, recombinant human TNF-alpha as analyte at 0.78-100 nM. The source says:
(§2) Recombinant human TNF-alpha (Life Technologies) was used as TNF-alpha.
In general terms: In SPR one partner is held on a chip, and binding of the other changes the refractive index at the surface.

The target is the same in test [3]. The test is described as follows: SPR (Biacore), conjugate amine-coupled to chip, TNF-alpha as analyte.
Description: as §2

The target is the same in test [4]. The test is described as follows: depletion assay: serially diluted conjugate mixed with human TNF-alpha (100% = 6.2 ng/mL), complex adsorbed on diol Sepharose beads, TNF-alpha remaining in the supernatant measured by ELISA; 2nd experiment. The procedure: as §1

T1 sequence (P01375 77-233 limits assumed): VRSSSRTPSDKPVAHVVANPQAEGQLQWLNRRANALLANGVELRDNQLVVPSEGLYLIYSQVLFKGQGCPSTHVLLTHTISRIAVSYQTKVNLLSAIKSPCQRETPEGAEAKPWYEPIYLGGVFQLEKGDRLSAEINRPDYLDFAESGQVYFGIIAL

B1: conjugate of the extracellular region of human TNF receptor 2 (TNFR2) and mutant recombinant human intelectin-1 (S165A) (receptor)
chain: LPAQVAFTPYAPEPGSTCRLREYYDQTAQMCCSKCSPGQHAKVFCTKTSDTVCDSCEDSTYTQLWNWVPECLSCGSRCSSDQVETQACTREQNRICTCRPGWYCALSKQEGCRLCAPLRKCRPGFGVARPGTETSDVVCKPCAPGTFSNTTSSTDICRPHQICNVVAIPGNASMDAVCTSTSPTRSMAPGAVHLPQPVSTRSQHTQPTPEPSTAPSTSFLLPMGPSPPAEGSTGDGTDEANTYFKEWTCSSSPSLPRSCKEIKDECPSAFDGLYFLRTENGVIYQTFCDMTSGGGGWTLVASVHENDMRGKCTVGDRWSSQQGSKADYPEGDGNWANYNTFGSAEAATSDDYKNPGYYDIQAKDLGIWHVPNKSPMQHWRNSALLRYRTDTGFLQTLGHNLFGIYQKYPVKYGEGKCWTDNGPVIPVVYDFGDAQKTASYYSPYGQREFTAGFVQFRVFNNERAANALCAGMRVTGCNTEHHCIGGGGYFPEASPQQCGDFSGFDWSGYGTHVGYSSSREITEAAVLLFYR
notes: also called conjugate of TNFR2 and intelectin
Take B1: the half-maximal effective concentration (EC50 (read off the curve)) in test [1] and in test [4] was roughly 0.3 µg/mL in each case. In addition, in test [2], the koff is 0.000536 s⁻¹. The Kd in test [3] was found to be 0.468 nM. Further, the on-rate constant (kon) in test [3] came to 1.14e+06 M⁻¹ s⁻¹.

The record behind these values is patent US20180057553A1 (UNIVERSITY OF TOKYO, published 2018).
